Source: publication PMC3084716, “Different Conformations of Phosphatase and Tensin Homolog, Deleted on Chromosome 10 (PTEN) Protein within the Nucleus and Cytoplasm of Neurons”
Where no end group is shown, it is not given here.

T1: PTEN peptide 33-47 amide (human and mouse (same sequence), UniProt P60484)
T1 chain: IAMGFPAERLEGVYR-NH2


How the values were obtained:
[1] = molecular target: T2, GST-PTEN (amino-terminal phosphatase domain) (Homo sapiens, UniProt P60484 1-200); test: filter binding, Scatchard; called affinity constant; Filter binding: 50 mM Tris (pH not given), 1 h, 40 µl, protein 0.5 mg/ml (Fig. 2E: GST-PTEN 25 µM), PBS washes; co-precipitation 1 h at room temperature, 1 µM aptamer; pull-down from homogenate with 250 nM aptamer, salmon sperm DNA, RIPA (1:2)/PBS washes; blots in PBS-BSA 2%; settings: protein: recombinant; tags: GST (N-terminal, pGEX2T); label: 5'-biotin or 32P (assay dependent); hairpin; 13 bp stem from the constant regions
T2 sequence (P60484 1-200): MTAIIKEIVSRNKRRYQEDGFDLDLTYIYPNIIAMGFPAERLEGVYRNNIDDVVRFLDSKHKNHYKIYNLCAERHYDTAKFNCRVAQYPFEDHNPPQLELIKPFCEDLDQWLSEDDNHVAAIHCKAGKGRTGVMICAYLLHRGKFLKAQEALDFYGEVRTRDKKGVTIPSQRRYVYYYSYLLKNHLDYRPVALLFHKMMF

[2] = molecular target: T1, PTEN peptide 33-47 amide; test: filter binding; Filter binding: 50 mM Tris (pH not given), 1 h, 40 µl, protein 0.5 mg/ml (Fig. 2E: GST-PTEN 25 µM), PBS washes; co-precipitation 1 h at room temperature, 1 µM aptamer; pull-down from homogenate with 250 nM aptamer, salmon sperm DNA, RIPA (1:2)/PBS washes; blots in PBS-BSA 2%; settings: tags: C-terminal amide; label: 5'-biotin or 32P (assay dependent); hairpin; 13 bp stem from the constant regions
[3] = molecular target: T2, GST-PTEN (amino-terminal phosphatase …); test: filter binding, Scatchard; data not shown; Filter binding: 50 mM Tris (pH not given), 1 h, 40 µl, protein 0.5 mg/ml (Fig. 2E: GST-PTEN 25 µM), PBS washes; co-precipitation 1 h at room temperature, 1 µM aptamer; pull-down from homogenate with 250 nM aptamer, salmon sperm DNA, RIPA (1:2)/PBS washes; blots in PBS-BSA 2%; settings: protein: recombinant; tags: GST (N-terminal, pGEX2T); label: 5'-biotin or 32P (assay dependent); hairpin; 13 bp stem from the constant regions
[4] = molecular target: T1, PTEN peptide 33-47 amide; test: co-precipitation on antibody-Sepharose, real-time PCR; peptide bound to anti-PTEN antiserum; 1.8e11 molecules bound; Filter binding: 50 mM Tris (pH not given), 1 h, 40 µl, protein 0.5 mg/ml (Fig. 2E: GST-PTEN 25 µM), PBS washes; co-precipitation 1 h at room temperature, 1 µM aptamer; pull-down from homogenate with 250 nM aptamer, salmon sperm DNA, RIPA (1:2)/PBS washes; blots in PBS-BSA 2%; settings: tags: C-terminal amide; label: 5'-biotin or 32P (assay dependent); hairpin; 13 bp stem from the constant regions

Row | Binder | Kd [1] | binding result [2] | Kd [3] | binding signal [4]
1 | PTENz7 (structured_DNA) DNA: CGGAATTCCGAGCGTGGGCGTGGTCATACCGCGCCTATCGAACTCGCCACTCGCGTGCAGCTCTGTGTAGGTACGCCCACGCTCGAG | 75 nM | binds |  | 
2 | PTENz14 (structured_DNA) DNA: CGGAATTCCGAGCGTGGGCGTGAGCCCTAAACACAAGTCCGCAGGGGTGTGGTAATATTCGCAGTTGTGTGTACGCCCACGCTCGAG |  |  | 54 nM | ~20 fold over background
